Assay results reported in article PMC12448354.

Columns and labels:
[1] = molecular target: human von Willebrand factor (VWF) (human) (UniProt P04275)
[2] = molecular target: Monodelphis domestica von Willebrand factor (VWF), purified from plasma (Monodelphis domestica)

**Q.** Which reduction in the overall extent of platelet adhesion to collagen under flow (60 dyn/cm^2), human PRP with 4 ug/mL botrocetin, against the control without venom protein [1] does the source give for “botrocetin from Bothrops jararaca (purified venom fraction) (complex)” here?
**A.** 66%

**Q.** What about the reduction in the overall extent of platelet adhesion to collagen under flow (60 dyn/cm^2), opossum PRP with 4 ug/mL botrocetin, against the control without venom protein [2] of the same substance?
**A.** 39%
